The values that follow come from US20130142788A1 (published 2013).

* marks the point of attachment. Biotin = O=C1N[C@H]2[C@H](CS[C@H]2CCCCC(=O)*)N1

As usually defined, the EC50 is the midpoint of the concentration-response curve. One may read the IC50 as the concentration that gives 50% inhibition. As a reminder, the Kd is the concentration at which binding is half-saturated.

The target in assay [1] is T1, recombinant mature dimeric myostatin (human and mouse (mature sequences 100% …, UniProt O08689 268-376)).
T1 construct: also called GDF-8; mature myostatin
T1 sequence: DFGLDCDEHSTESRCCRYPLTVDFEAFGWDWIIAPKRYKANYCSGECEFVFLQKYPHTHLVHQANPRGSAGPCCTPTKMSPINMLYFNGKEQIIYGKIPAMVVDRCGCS
The assay can be described thus: ELISA, myostatin coated at 10 ng/well. Here is the method:
10B3 and 10B3 chimera (10B3C) bound myostatin (R&D Systems, 788-G8-010/CF) in a sandwich ELISA. Plates were coated with myostatin at 10 ng/well and blocked with Block solution (PBS, 0.1% TWEEN and 1% BSA). Following washing (PBS, 0.1% TWEEN), antibody was incubated at 37° C. for 2 hours over a dilution series and plates washed again prior to incubation at 37° C. for 1 hour with anti-mouse HRP or anti-human HRP (Dako, P0161 & Sigma, A-8400, respectively). Plates were again washed and OPD substrate (Sigma, P9187) added until colourometric reaction occurred and the reaction stopped by the addition of H₂SO₄.
(In general: An ELISA detects its analyte on a solid surface through an enzyme-linked reagent.)

Assay [2] deals with T1, recombinant mature dimeric myostatin. Kind of assay: ActRIIb receptor binding assay: inhibition of biotinylated myostatin binding to coated ActRIIb. The protocol:
(§1) Recombinant soluble ActRIIb (R&D Systems 339-RBB) was coated in wells of an ELISA plate at 1 μg/ml in carbonate buffer overnight at 4° C. Plates were blocked (see Block solution above at 2.3) and washed following standard ELISA protocols. In parallel, 2 nM biotinylated myostatin (in-house, as described in 1.1, biotinylated material) was pre-incubated with an antibody dilution series consisting of 10B3, 10B3C, and a negative control (IgG1 isotype control) for 2 hours at 37° C. The biotinylated myostatin:antibody reactions were then added to the ActRIIb coated plate for 1 hour at 37° C. Standard wash procedures were followed prior to addition of 1:1000 diluted streptavidin-HRP conjugate (Dako P0397) and a further 37° C. incubation for 1 hour. Plates were again washed and assayed at absorbance 490 nm following OPD substrate (Sigma) and acid stop solution treatment. Inhibition curves and IC50 values for the inhibition of myostatin activity are shown in FIG. 5 and Table 8 respectively.

Assay [3] has the same target. The assay can be described thus: ActRIIb neutralisation ELISA: inhibition of 2 nM biotinylated myostatin binding to coated ActRIIb. Put shortly: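 Soluble ActRIIb coated at 1 μg/ml; 2 nM biotinylated myostatin pre-incubated 30 min at 37° C with antibody dilution series, then bound to plate 1 h at 37° C. Bound myostatin detected with streptavidin-HRP, absorbance at 490 nm after acid stop.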

Assay [4] has the same target. Kind of assay: BIAcore T100 SPR, antibody captured on anti-mouse IgG, myostatin analyte, all curves 1:1 model. The protocol: The affinity of 10B3 mouse parental and 10B3C for recombinant myostatin was assessed by BIAcore™ (surface plasmon resonance) analysis. Analysis was carried out by the use of a capture surface: anti-mouse IgG was coupled to a C1 chip by primary amine coupling for 10B3 mouse parental; and a protein A surface was created on a C1 chip by primary amine coupling for 10B3 chimera.
After capture, recombinant myostatin was passed over the surface at 64 nM, 16 nM, 4 nM, 1 nM, 0.25 nM and 0.0625 nM, with a buffer injection (i.e. 0 nM) used for double referencing. There was a regeneration step between each analyte injection, after which the new antibody capture event occurred before the next injection of myostatin. The data was analysed using both the 1:1 model and the Bivalent model inherent to the T100 machines analysis software (see Table 6). Both capture surfaces could be regenerated using 100 mM phosphoric acid, the work was carried out using HBS-EP as the running buffer and using 25° C. as the analysis temperature.
For orientation: In SPR one partner is held on a chip, and binding of the other changes the refractive index at the surface.

For assay [5], the target named is T2, human myostatin pro-peptide dimer (human, UniProt O14793 25-266, limits assumed).
T2 sequence: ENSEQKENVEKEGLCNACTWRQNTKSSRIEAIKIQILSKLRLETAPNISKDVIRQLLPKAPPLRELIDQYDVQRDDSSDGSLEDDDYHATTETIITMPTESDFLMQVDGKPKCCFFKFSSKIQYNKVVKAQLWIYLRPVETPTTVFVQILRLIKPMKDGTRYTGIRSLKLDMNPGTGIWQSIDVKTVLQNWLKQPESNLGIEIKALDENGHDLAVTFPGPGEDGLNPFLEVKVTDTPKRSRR
The assay can be described thus: ELISA, antigen coated at 100 ng/well. The protocol:
The myostatin antigens were coated onto wells of an EIA/RIA plate (Costar) at 100 ng/well at 4° C. overnight in PBS, prior to blocking (PBS, 3% BSA) for 30 minutes at room temperature. Plates were washed (PBS, 1% BSA and 0.1% Tween20), prior to the addition of a dilution series of 10B3 in wash buffer and incubation for 2 hours at room temperature. Plates were again washed prior to addition of peroxidase-conjugated Affinipure F(ab′)2 fragment donkey anti-mouse IgG (Jackson Laboratories cat 715-036-151) diluted 1:10,000 in wash buffer and incubated for 1 hour at room temperature. A final wash step preceded addition of TMB substrate and colorimetric change which was stopped with Sulphuric acid and plates read at 450 nm.

Assay [6] addresses T3, myostatin artificial peptide No 35 (SGSGSAGPCCTPTKMSPI) (cysteine pairing not given here).
T3 construct: also called Peptide 35
T3 peptide: Biotin-SGSGSAGPCCTPTKMSPI-NH2
The assay can be described thus: SRU BIND biosensor, peptides captured on streptavidin plate. Here is the method:
Work was carried out on an SRU BIND reader (SRU Biosystems). A streptavidin biosensor plate was washed, a baseline reading taken, and biotinylated peptides captured onto the streptavidin coated biosensor plate. The plate was washed again, and a new baseline reading taken, antibody was then added and binding monitored.

In assay [7] the target is T1, recombinant mature dimeric myostatin. The assay can be described thus: cell-based or functional assay.
Assay [8] has the same target. The assay can be described thus: ActRIIb receptor neutralisation ELISA: antibody pre-incubated with 2 nM biotinylated myostatin, binding to coated ActRIIb. The protocol: as §1

B1: mouse monoclonal antibody 10B3 (antibody, mouse IgG2a, V domains shown)
VH: EVQLQQSGPELVKPGASVKISCKASGYSFTGYFMHWVKQSHGNILDWIGNIYPYNGVSNYNQRFKAKATLTVDKSSSTAYMELRSLTSEDSAVYYCARRYYYGTGPADWYFDVWGTGTTVTVSS
VL: DIKMTQSPSSMYASLRERVTITCKASQDINSYLSWFQQKPGKSPKTLIYRANRLVDGVPSRFSGSGSGQDYSLTISSLEYEDMGIYYCLQCDEFPLTFGAGTKLELK
notes: Murine IgG2a/k; also called 10B3 mouse parental; parental 10B3
As for B1, the EC50 in assay [1] stood at 0.069 µg/mL. Besides, the concentration for half-maximal inhibition (IC50) was 0.161 nM in assay [2], 0.172 nM in assay [3] and 0.132 µg/mL in assay [8]. The Kd in assay [4] stood at 1 nM. In addition, the binding result in assay [5] and in assay [6] was “no binding” each time. In addition, in assay [7], the “IC50, myostatin responsive reporter gene assay (A204 cells, luciferase)” value was found to be 10 nM.
